From PMC3258144

B1: Non-CG-Cy5 29-mer (dsDNA)
DNA 1: ACTTGCAACAGTCCTAACATTCACCTCTT
DNA 2: AAGAGGTGAATGTTAGGACTGTTGCAAGT
B2: 2CG-Cy5 29-mer (dsDNA)
DNA 1: ACTTGCAACGGTCCTAACCGTCACCTCTT
DNA 2: AAGAGGTGACGGTTAGGACCGTTGCAAGT

Target: Dnmt3a-C WT (mouse, UniProt O88508 608-908)
Assay: fluorescence anisotropy

Chain of Dnmt3a-C WT (O88508 608-908): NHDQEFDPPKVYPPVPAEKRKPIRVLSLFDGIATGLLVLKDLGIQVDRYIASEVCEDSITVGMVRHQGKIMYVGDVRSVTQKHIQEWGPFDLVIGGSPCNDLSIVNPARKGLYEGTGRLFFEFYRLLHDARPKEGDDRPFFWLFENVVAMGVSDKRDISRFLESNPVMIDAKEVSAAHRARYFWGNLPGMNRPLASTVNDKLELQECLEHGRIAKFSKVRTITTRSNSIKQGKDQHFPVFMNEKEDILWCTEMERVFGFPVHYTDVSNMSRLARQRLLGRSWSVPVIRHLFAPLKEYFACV

| Binder | Kd |
| --- | --- |
| B1 | 130 ± 12 nM |
| B2 | 190 ± 10 nM |
